The assay deals with FcγRIIIa on Jurkat effector cells (UniProt P08637). In words: cell-based or functional assay.
Chain of FcγRIIIa on Jurkat effector cells (P08637 17-254 limits assumed): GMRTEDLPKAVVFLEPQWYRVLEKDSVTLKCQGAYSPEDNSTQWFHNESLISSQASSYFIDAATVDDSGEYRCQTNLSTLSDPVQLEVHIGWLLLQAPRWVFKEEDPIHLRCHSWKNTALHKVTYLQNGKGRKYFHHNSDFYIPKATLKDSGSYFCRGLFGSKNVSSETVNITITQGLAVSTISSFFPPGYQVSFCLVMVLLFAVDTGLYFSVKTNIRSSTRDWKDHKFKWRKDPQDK

B1: templated αCD16-Fab construct with the C-terminal fusion (175Cys trastuzumab Fab + C-terminal meditope αCD16 nanobody) (bispecific antibody, part only; not given: trastuzumab Fab chains, V domains shown, part only)
VHH: EVQLVESGGELVQAGGSLRLSCAASGLTFSSYNMGWFRRAPGKEREFVASITWSGRDTFYADSVKGRFTISRDNAKNTVYLQMSSLKPEDTAVYYCAANPWPVAAPRSGTYWGQGTQVTVSSGSHHHHHHGGSQFDLCTRRLQS
In turn, B1 returned an EC50 of in vitro ADCC reporter assay (SKBR3 targets, Jurkat effector cells), independent measurement 1 of 3.2 pM and an EC50 of in vitro ADCC reporter assay (SKBR3 targets, Jurkat effector cells), independent measurement 2 of 4.7 pM.

For the origin of these results see patent publication US20200368364A1, “CYSTEINE PEPTIDE-ENABLED ANTIBODIES” (City of Hope, priority 2016, published 2020).
